Source: patent US20240043504A1 (published 2024)

T1: MERS-CoV (NCoV/Novel coronavirus) Spike Protein S1 Protein (aa 1-725, His Tag) (Sino 40069-V08B1) (MERS-CoV, UniProt K9N5Q8 18-725)
T1 sequence: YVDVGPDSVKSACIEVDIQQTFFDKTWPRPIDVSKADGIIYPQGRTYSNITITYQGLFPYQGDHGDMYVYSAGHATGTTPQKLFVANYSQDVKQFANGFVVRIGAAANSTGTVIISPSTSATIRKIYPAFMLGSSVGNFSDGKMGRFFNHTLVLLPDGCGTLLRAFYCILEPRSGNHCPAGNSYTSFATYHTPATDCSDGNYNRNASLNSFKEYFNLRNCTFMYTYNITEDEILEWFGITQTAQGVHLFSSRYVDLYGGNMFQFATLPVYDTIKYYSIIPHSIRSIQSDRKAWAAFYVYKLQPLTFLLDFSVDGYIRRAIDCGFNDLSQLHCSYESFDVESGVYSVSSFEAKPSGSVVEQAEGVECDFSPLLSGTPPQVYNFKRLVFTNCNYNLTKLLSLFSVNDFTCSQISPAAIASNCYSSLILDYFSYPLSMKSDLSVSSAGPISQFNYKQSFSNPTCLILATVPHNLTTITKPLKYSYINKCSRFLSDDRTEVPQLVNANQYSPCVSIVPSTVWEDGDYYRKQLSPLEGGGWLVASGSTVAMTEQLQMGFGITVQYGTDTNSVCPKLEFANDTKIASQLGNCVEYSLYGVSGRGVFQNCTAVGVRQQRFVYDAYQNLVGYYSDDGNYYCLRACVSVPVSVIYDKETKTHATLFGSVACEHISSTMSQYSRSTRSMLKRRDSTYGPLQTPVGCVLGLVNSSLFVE

T2: MERS-CoV Spike Protein (ECD, aa 1-1297, His Tag) (Sino 40069-[change]) (MERS-CoV, UniProt K9N5Q8 18-1297)
T2 sequence: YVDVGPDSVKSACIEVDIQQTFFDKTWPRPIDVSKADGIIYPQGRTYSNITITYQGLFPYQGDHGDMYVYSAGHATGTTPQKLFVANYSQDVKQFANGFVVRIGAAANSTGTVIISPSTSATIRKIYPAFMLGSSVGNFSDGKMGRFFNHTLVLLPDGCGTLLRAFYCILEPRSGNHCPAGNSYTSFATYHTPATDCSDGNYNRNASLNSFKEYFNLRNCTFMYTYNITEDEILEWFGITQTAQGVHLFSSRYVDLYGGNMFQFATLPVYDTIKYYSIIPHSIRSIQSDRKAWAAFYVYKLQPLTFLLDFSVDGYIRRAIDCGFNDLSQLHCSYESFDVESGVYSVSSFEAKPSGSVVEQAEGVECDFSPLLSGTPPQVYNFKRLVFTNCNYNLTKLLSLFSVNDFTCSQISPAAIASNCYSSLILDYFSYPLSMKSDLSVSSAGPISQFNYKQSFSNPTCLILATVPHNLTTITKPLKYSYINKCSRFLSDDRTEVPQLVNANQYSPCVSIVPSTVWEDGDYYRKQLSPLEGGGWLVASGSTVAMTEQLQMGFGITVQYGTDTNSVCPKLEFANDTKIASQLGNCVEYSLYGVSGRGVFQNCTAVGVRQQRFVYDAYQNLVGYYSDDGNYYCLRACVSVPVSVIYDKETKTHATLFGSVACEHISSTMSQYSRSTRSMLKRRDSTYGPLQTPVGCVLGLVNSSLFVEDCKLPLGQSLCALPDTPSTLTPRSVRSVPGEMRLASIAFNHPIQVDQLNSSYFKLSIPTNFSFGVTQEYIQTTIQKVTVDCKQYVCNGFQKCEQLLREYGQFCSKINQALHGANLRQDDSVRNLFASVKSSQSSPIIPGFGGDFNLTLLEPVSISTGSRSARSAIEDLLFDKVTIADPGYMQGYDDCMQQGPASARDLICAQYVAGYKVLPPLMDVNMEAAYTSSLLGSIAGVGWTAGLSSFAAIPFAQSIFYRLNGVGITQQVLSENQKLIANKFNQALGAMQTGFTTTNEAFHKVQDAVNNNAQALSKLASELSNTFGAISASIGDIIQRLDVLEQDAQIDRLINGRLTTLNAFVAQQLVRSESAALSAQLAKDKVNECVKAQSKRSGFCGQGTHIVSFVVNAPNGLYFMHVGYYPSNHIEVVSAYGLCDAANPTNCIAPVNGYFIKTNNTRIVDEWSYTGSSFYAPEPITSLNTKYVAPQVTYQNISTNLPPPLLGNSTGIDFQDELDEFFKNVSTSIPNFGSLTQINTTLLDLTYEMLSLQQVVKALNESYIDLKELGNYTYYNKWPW

T3: MERS-CoV (NCoV/Novel coronavirus) Spike Protein fragment (RBD, aa 367-606, His Tag) (Sino 40071-V08B1) (MERS-CoV, UniProt K9N5Q8 367-606)
T3 sequence: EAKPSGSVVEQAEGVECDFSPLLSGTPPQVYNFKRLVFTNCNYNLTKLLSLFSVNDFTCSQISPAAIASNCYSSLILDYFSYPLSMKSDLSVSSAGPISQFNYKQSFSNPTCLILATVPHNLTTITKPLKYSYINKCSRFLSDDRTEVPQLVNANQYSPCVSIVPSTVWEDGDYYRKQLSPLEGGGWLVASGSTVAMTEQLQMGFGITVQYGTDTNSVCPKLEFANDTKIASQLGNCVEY

T4: MERS-CoV Spike Protein S2 (aa 726-1296, His Tag) (Sino 40070-[change]) (MERS-CoV, UniProt K9N5Q8 726-1296)
T4 sequence: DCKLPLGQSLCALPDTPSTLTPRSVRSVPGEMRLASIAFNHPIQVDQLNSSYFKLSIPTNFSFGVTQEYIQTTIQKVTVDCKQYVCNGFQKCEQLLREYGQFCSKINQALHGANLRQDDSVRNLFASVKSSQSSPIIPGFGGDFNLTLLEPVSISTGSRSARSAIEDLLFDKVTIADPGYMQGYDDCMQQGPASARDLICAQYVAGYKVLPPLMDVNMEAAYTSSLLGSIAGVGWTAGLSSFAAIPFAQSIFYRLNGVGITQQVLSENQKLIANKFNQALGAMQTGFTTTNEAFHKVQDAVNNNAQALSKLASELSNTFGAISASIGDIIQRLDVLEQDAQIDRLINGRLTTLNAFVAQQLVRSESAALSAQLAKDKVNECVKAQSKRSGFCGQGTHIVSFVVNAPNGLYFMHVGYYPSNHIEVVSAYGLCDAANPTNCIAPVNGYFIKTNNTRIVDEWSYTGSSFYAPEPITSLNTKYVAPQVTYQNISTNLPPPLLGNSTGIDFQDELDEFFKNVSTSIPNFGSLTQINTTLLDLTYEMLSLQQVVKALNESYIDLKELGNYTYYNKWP


Key:
Experiment in all cases: Luminex, supernatant
[1] = target: T1, MERS-CoV (NCoV/Novel coronavirus) Spike …
[2] = target: SARS-CoV-2 Spike Protein (RBD)(R319-F541).hFc (SARS-CoV-2)
[3] = target: Human SARS Coronavirus Spike S1 Subunit Protein (His Tag) (Sino 40150-V08B1) (Human SARS Coronavirus, UniProt P59594 14-667)
[4] = target: T2, MERS-CoV Spike Protein (ECD, aa 1-1297, …)
[5] = target: SARS-CoV-2 Spike Protein (RBD)(R319-F541).mFc (SARS-CoV-2)
[6] = target: T3, MERS-CoV (NCoV/Novel coronavirus) Spike …
[7] = target: T4, MERS-CoV Spike Protein S2 (aa 726-1296, …)

Row | Binder | MFI [1] [MFI] | MFI [2] [MFI] | MFI [3] [MFI] | MFI [4] [MFI] | MFI [5] [MFI] | MFI [6] [MFI] | MFI [7] [MFI]
1 | mAb10923 (antibody, V domains shown) VH: QVQLVQSGAEVKKPGASVKVSCKASGYTFINYYIHWVRQAPGQGLEWMGWINPNSGGTNYAQKFQGRVTMTRDTSISTAYMELSRLRSDDTAVYYCAIITIFGVVTWFDPWGQGTLVTVSS VL: not shown | 25 | 37800 | 29 | 23 | 37400 | 37 | 36
2 | mAb10920 (antibody, V domains shown) VH: QVQLVESGGGVVQPGRSLRLSCAASGFTFSYYGMHWVRQAPGKGLEWVAVIWYDGSNKFYADSVKGRFTISRDNSKNTLYLQMNSLRAEDTAVYYCAAARPGYYYGMDVWGQGTTVTVSS VL: DIQMTQSPSSLSASVGDRVTITCRASQGISNYLAWFQQKPGKAPNSLIYAASSLQRGVPSKFSGSGSGTDFTLTISSLQPEDFATYYCQQYNSYPRTFGQGTKVEIKR | 27 | 36800 | 26 | 24 | 36400 | 39 | 30
3 | mAb10936 (antibody, V domains shown) VH: QVQLVESGGGVVQPGRSLRLSCAASGFTFRNYGMHWVRQAPGKGLEWVSVIWYDGSNRYYADSVKGRFTISRDTSKNTLYLQMNSLRAEDTAVYYCARDPPITGTTGGDAFDIWGQGTMVTVSS VL: not shown | 20 | 33900 | 20 | 19 | 33700 | 29 | 21
4 | mAb10930 (antibody, V domains shown) VH: EVQLVESGGGLVQPGRSLRLSCAASGFTFDDYAMYWVRQAPGKGLEWVSGISWNSGSIGYADSVKGRFTISRDNAKNSLYLQMNSLRAADTALYYCAKDKDWNSRGYYYYGMDVWGQGTTVTVSS VL: not shown | 22 | 28900 | 19 | 16 | 28600 | 27 | 20
5 | mAb10937 (antibody, V domains shown) VH: QITLKESGPTLVKPTQTLTLTCTFSGFSLSTNVVGVGWIRQPPGKALEWLALIYWNDDKRYSPSLKSRLTITKDTSKNQVVLTMTNMDPVDTATYYCAHGPTGDYFDYWGQGTLVTVSS VL: not shown | 22 | 34600 | 21 | 19 | 34200 | 27 | 26
6 | mAb10913 (antibody, V domains shown) VH: EVQLVESGGGLVQPGGSLRLSCAASGFTFRNYEMNWVRQAPGKGLEWVSYITSSGSTMYYADSVKGRFTISRDNAKNSLYLQMNSLRAEDTAVYYCARDGFYYYYAMDVWGQGTTVTVSS VL: QSVLTQPPSVSAAPGQKVTISCSGSSSNIGNNYVSWYQQLPGTAPKLLIYDNNKRPSGIPDRFSGSKSGTSATLGITGLQTGDEADYYCGTWDSSLSVGRVFGTGTKVTVLG | 26 | 31900 | 21 | 20 | 33000 | 34 | 26
7 | mAb10914 (antibody, V domains shown) VH: EVQLVESGGGLVQPGGSLRLSCAASGLIVSRNYMIWVRQAPGKGLEWVSVIYSGGSTFYADSVKGRFTISRHNSKNTLYLQMNSLRAEDTAVYYCARDLGTGGMDVWGQGTTVTVSS VL: DIQLTQSPSFLSASVGDRVTITCWASQGISSYLAWYQQKPGKAPKLLIYAASTLQSGVPSRFSGSGSGTEFTLTISSLQPEDFATYYCQQLNSYPLTFGGGTKVEIKR | 23 | 30500 | 22 | 19 | 30700 | 31 | 28
